The target in experiment [1] is WT cortactin stably expressed in MTLn3 cells (endogenous cortactin knocked down) (rat). The experiment is described as follows: FRET or BRET. For orientation: Bioluminescence resonance energy transfer reports proximity on the nanometre scale.
The target of experiment [2] is endogenous cortactin of MTLn3 cells (rat (endogenous in MTLn3)) (UniProt Q66HL2). Kind of experiment: FRET or BRET.

We go through one substance from article PMC2733743.

WT cortactin stably expressed in MTLn3 cells (endogenous cortactin knocked down) (rat), sequence (Q66HL2 whole entry): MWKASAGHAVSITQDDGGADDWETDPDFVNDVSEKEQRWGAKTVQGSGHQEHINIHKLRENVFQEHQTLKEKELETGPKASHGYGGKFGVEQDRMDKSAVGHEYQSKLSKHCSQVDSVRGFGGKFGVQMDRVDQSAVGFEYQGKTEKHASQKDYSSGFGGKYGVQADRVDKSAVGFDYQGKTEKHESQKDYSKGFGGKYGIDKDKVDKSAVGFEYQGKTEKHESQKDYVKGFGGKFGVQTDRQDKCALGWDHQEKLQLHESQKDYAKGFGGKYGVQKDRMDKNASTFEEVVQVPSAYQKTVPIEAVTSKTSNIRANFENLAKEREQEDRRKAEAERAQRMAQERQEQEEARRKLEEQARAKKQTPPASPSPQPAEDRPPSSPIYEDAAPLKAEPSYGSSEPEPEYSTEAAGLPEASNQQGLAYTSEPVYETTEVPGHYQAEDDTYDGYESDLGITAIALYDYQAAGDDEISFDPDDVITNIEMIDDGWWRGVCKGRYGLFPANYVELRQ

Turning to “endogenous cofilin of MTLn3 cells (from UniProt P45592 1-166) (natural protein)”, the FRET efficiency in experiment [1] came out at 4.2%; in experiment [2], 11.8%.
